From patent publication US20190031729A1 (Pieris, published 2019)

Target: T1, cynomolgus LAG-3 on CHO cells (cynomolgus)
T1 construct: whole, on cells; also called CHO::cyLAG-3; CHO cells transfected with cynomolgus LAG-3
Experiment: FACS on CHO cells transfected with cynomolgus LAG-3
Method: 5×10⁴ cells per well were pre-incubated for 1 h in ice-cold PBS containing 5% fetal calf serum (PBS-FCS). […] Cells were washed twice in ice-cold PBS using centrifugation at 300×g and then incubated with a rabbit anti-lipocalin primary antibody (polyclonal rabbit anti-hTlc, Pieris) for 30 min on ice. Cells were then again washed twice in ice-cold PBS, re-suspended in PBS-FCS and incubated 30 min on ice with an antibody labelled with Alexafluor647 (Jackson Immunologics). Cells were subsequently washed and analyzed using intellicyt IQue Flow cytometer (Intellicyt). Fluorescent data generated by lipocalin mutein binding to LAG-3 expressing cells were analyzed using Forecyt software and resulted geometric fluorescent mean were plotted and fitted using Graphpad software.

B1: benchmark anti-LAG-3 antibody, BMS 986016 (SEQ ID NOs: 5 and 6) (antibody, V domains shown)
VH: QVQLQQWGAGLLKPSETLSLTCAVYGGSFSDYYWNWIRQPPGKGLEWIGEINHRGSTNSNPSLKSRVTLSLDTSKNQFSLKLRSVTAADTAVYYCAFGYSDYEYNWFDPWGQGTLVTVSS
VL: EIVLTQSPATLSLSPGERATLSCRASQSISSYLAWYQQKPGQAPRLLIYDASNRATGIPARFSGSGSGTDFTLTISSLEPEDFAVYYCQQRSNWPLTFGQGTNLEIKR
- EC50: 21 nM
